Laboratory results published in patent US12208130B2, “Treatment of women affected with polycystic ovary syndrome” (INSTITUT NATIONAL DE LA SANTE ET DE LA RECHERCHE MEDICALE …, priority 2017, dated 2025).
Where a SMILES comes first, the peptide text is derived from it. [ ]: non-standard residue; d: D form. dPhe(4-Cl) = N[C@H](Cc1ccc(Cl)cc1)C(=O)O; d2Nal = N[C@H](Cc1ccc2ccccc2c1)C(=O)O; dCit = NC(=O)NCCC[C@@H](N)C(=O)O; d3Pal = N[C@H](Cc1cccnc1)C(=O)O

System: C57BL6/J (B6) dams and their female offspring
Test: Prenatal treatment of pregnant dams: phenotype, estrous cycle, ovarian histology and fertility of female offspring
Assay type: in vivo, mouse
Method: FIGS. 2A-2E-3. Prenatal AMH treatment disrupts estrous cyclicity, ovarian morphology and fertility in adult offspring. (FIG. 2A) Schematic of experimental design whereby pregnant dams were subjected to different treatments by intraperitoneal (i.p.) injections during the late gestational period (embryonic days (E) 16.5-E18.5). Pregnant dams were treated with i.p. injections of four different treatments, which are designated as the following: Control, PBS, 0.01M, pH 7.4 (n=14); Prenatal anti-Müillerian hormone-treated (PAMH), PBS containing human recombinant AMH (n=19); Prenatal AMH+Cetrorelix (PAMH+GnRH antag), PBS containing both human recombinant AMH and cetrorelix acetate (n=10); Cetrorelix-treated (GnRH antag), PBS containing cetrorelix acetate (n=4). (FIG. 2B) Quantitative analysis of ovarian cyclicity in adult (P60-P90) offspring mice (control, n=14; PAMH, n=19; PAMH+GnRH antag, n=10; GnRH antag, n=4). Vaginal cytology was assessed for 16 days. […] Bars from left to right in each group: Control, PAMH, PAMH+GnRH antag, GnRH antag. (FIGS. 2C-1, 2C-2, 2C-3) Representation of estrous cyclicity in one female mouse of each of the four treatments during 16 consecutive days (4-cycles). (FIGS. 2D-1, 2D-2, 2D-3) Quantitative analysis of corpora lutea, late antral follicles and atretic follicles in the ovaries of Control (n=7, age: P90) and PAMH mice (n=8, age: P90). Data are represented as mean±s.e.m (two-tailed Student's t-test; corpora lutea, t(13)=4.879, **P<0.001; late antral follicles, t(13)=4.637, **P<0.001; atretic follicles, t(13)=0.226, P=0.82). Data were combined from two independent experiments. In FIGS. 2D-1, 2D-2 and 2D-3: left bar: Control; right bar: PAMH.). (FIGS. 2E-1, 2E-2, 2E-3) Fertility tests of the adult offspring mice (P90). Bars from left to right in each FIGS. 2E-1, 2E-2 and 2E-3: Control, PAMH, PAMH+GnRH antag, GnRH antag Matings were performed for 90 days. Control females were paired with control males (n=7), PAMH females were paired with PAMH males (n=7), PAMH+GnRH antag females were paired with PAMH+GnRH antag males (n=6), and GnRH antag females were paired with GnRH antag males (n=4). […] Data are represented as mean±s.e.m. One-way ANOVA and Tukey's multiple comparison post hoc test: time to first litter, F(3,20)=14.73, ***P<0.0001; fertility index, F(3,20)=7.069, *P<0.05, **P<0.005; number of pups/litter, F(3,20)=30.71, ***P<0.0001.
FIGS. 8A-8D. Prenatal AMH treatment disrupts puberty onset and estrous cyclicity cyclicity but not body mass of the offspring. (FIGS. 8A, 8B, 8C, 8D) Parameters of pubertal onset and estrous cyclicity in female control (n=14), PAMH (n=17-19), PAMH+GnRH antag (n=10), and GnRH antag (n=4) animals. (FIG. 8A) Age of vaginal opening (VO) and (FIG. 8B) Age of first estrus were compared using a one-way ANOVA and Tukey's multiple comparison post hoc analyses, respectively: F (3, 43)=48.37, *** P<0.0001; F (3, 41)=112.6, *** P<0.0001. Bars from left to right in each FIGS. 8A, 8B: Control, PAMH, PAMH+GnRH antag, GnRH antag (FIG. 8C) Percentage (%) of completed estrous cycles over 16 days (4 cycles) was analyzed using a non-parametric Kruskal-Wallis test followed by a Dunn's multiple comparison post-hoc analysis: Kruskal-Wallis statistic=35.55, *P<0.05, **P<0.005, ***P<0.0001. Bars from left to right in each FIG. 8C: Control, PAMH, PAMH+GnRH antag, GnRH antag (FIG. 8D) Body mass (gr) was measured in female offspring at each post-natal age (P) until P60 and compared using a one-way ANOVA and Tukey's multiple comparison post hoc analyses for each age and treatment: P30, F (3, 43)=1.338, P=0.2747; P35, F (3, 43)=0.4268, P=0.7348; P40, F (3, 43)=0.4171, P=0.7416; P50, F (3, 27)=2.158, P=0.1162; P60, F (3, 27)=5.45, P=0.0046; * P<0.05, **, P<0.005. Asterisks represent significant differences (mean±s.e.m): *P<0.05, **P<0.005, ***, P<0.0001. Bars from left to right in FIG. 8D: Control, PAMH, PAMH+GnRH antag, GnRH antag. […]

[1] = dams i.p. AMH 0.12 mg/Kg/d + cetrorelix acetate 0.5 mg/Kg E16.5-E18.5, female offspring
[2] = dams i.p. 0.12 mg/Kg/d E16.5-E18.5, female offspring vs control

Molecule	estrous cyclicity and fertility (GnRH antagonist alone, dams i.p. 0.5 mg/Kg/d E16.5-E18.5, offspring)	longer ano-genital distance phenotype of PAMH offspring [1]	oligo-anovulation and subfertility (ovulatory and fertility defects) of PAMH offspring [1]	oligo-anovulation and subfertility (ovulatory and fertility defects) of PAMH offspring (dams i.p. AMH 0.12 mg/Kg/d + cetrorelix acetate 0.5 mg/Kg E16.5-E18.5, female offspring, listed as GnRH antagonist)	estrous cyclicity (dams i.p. 0.12 mg/Kg/d E16.5-E18.5, adult female offspring vs control)	ano-genital distance (dams i.p. 0.12 mg/Kg/d E16.5-E18.5, female offspring P30-P60 vs control)	body weight of offspring [2]	puberty onset (first estrus) [2]	vaginal opening [2]
CC(=O)N[C@H](Cc1ccc2ccccc2c1)C(=O)N[C@H](Cc1ccc(Cl)cc1)C(=O)N[C@H](Cc1cccnc1)C(=O)N[C@@H](CO)C(=O)N[C@@H](Cc1ccc(O)cc1)C(=O)N[C@H](CCCNC(N)=O)C(=O)N[C@@H](CC(C)C)C(=O)N[C@@H](CCCNC(=N)N)C(=O)N1CCC[C@H]1C(=O)N[C@H](C)C(N)=O [Cetrorelix acetate, Ac-D-2Nal-D-Phe(4-Cl)-D-3Pal-Ser-Tyr-D-Cit-Leu-Arg-Pro-D-Ala-NH2] (Ac-[d2Nal][dPhe(4-Cl)][d3Pal]SY[dCit]LRP[dA]-NH2)	no effect	completely rescued	totally prevented	prevented the appearance of the ovulatory and fertility defects	–	–	–	–	–
proAMH: AMH proprotein (Origene Technologies, Cat # TP308397), injected prenatally 0.12 mg/Kg/d (protein, UniProt P03971 25-560, looked up, pro-form, AMH proprotein (Origene Technologies, Cat # TP308397), injected prenatally 0.12 mg/Kg/d) pro-form: LRAEEPAVGTSGLIFREDLDWPPGSPQEPLCLVALGGDSNGSSSPLRVVGALSAYEQAFLGAVQRARWGPRDLATFGVCNTGDRQAALPSLRRLGAWLRDPGGQRLVVLHLEEVTWEPTPSLRFQEPPPGGAGPPELALLVLYPGPGPEVTVTRAGLPGAQSLCPSRDTRYLVLAVDRPAGAWRGSGLALTLQPRGEDSRLSTARLQALLFGDDHRCFTRMTPALLLLPRSEPAPLPAHGQLDTVPFPPPRPSAELEESPPSADPFLETLTRLVRALRVPPARASAPRLALDPDALAGFPQGLVNLSDPAALERLLDGEEPLLLLLRPTAATTGDPAPLHDPTSAPWATALARRVAAELQAAAAELRSLPGLPPATAPLLARLLALCPGGPGGLGDPLRALLLLKALQGLRVEWRGRDPRGPGRAQRSAGATAADGPCALRELSVDLRAERSVLIPETYQANNCQGVCGWPQSDRNPRYGNHVVLLLKMQVRGAALARPPCCVPTAYAGKLLISLSEERISAHHVPNMVATECGCR	–	–	–	–	disrupted estrous cyclicity	significantly longer ano-genital distance	no difference in body weight	delayed puberty onset	delayed vaginal opening
